Patent publication US20200268795A1, “INTERFERON-GAMMA ATTENUATES ANTI-TUMOR IMMUNE RESPONSE TO CHECKPOINT BLOCKADE” (The Regents of the University of California, priority 2017, published 2020)

Experiments:
[1] = tested on: peripheral blood mononuclear cells from a melanoma patient; assay: Patient PBMC stimulated in vitro with IFN-γ, apoptosis of CD8+ T cells; assay type: cell-based, human; settings: different concentrations of IFN-γ; FIG. 5D
Description: It has been shown that T cell homeostasis can be achieved by down-modulation of antigen specific T cell receptor (TCR) signaling (A. M. Gallegos et al., Nature immunology 17, 379-386 (2016)). To investigate whether combination treatment eliminated different T cell clones depended on the strength of TCR binding to cognate cancer epitope, we gated on CD8 subsets and investigated Spas-1hi versus Spas-11o CD8+ T cell clones (FIG. 12C). […] Finally, peripheral blood mononuclear cells from a melanoma patient that received nivolumab immunotherapy were isolated and cultured in vitro with different concentrations of IFN-γ stimulation.
Splenocytes were harvested from TRAMP-C2 bearing C57BL/6j mice on day 50 and T cells were purified by magnetic beads according to the manufacturer's protocol (Miltenyi Biotec Cat 130-095-130). Cells were checked for over 90% purity. Purified T cells were suspend in DMEM (UCSF cell culture core) +10% fetal bovine serum (Lonza Cat 14-501F) +1% penicillin/streptomycin (UCSF cell culture core)+murine 20 IU IL-2 (Peprotech Cat 212-12), and seeded in 96 wells at 2×10^5 cells per well. Recombinant murine IFN-γ (Peprotech Cat 212-12) was added into the wells at indicated concentrations. Cells were cultured for 12-72 hours and analyzed by flow cytometry. […] Cells were harvested and analyzed by flow cytometry 72 hours after incubation.

[2] = tested on: T cells purified from TRAMP-C2 tumor bearing mice; assay: In vitro T cell cultures stimulated with recombinant IFN-γ, active Caspase-3; assay type: cell-based; settings: 72 hours after IFN-γ stimulation; FIG. 5B
Protocol: We hypothesized that the loss of Spas-1 specific CD8+ T cells may be related to increased IFN-γ signaling. […] To further evaluate the effects of IFN-γ on antigen specific T cells, T cells were purified from spleens of tumor-bearing mice and stimulated with different concentrations of recombinant IFN-γ in vitro (FIG. 5A). 72 hours after the stimulation, the level of active Caspase-3 expression was examined among T cells subsets, including naïvee T cells (CD45+CD8+CD44-CD62L+), antigen specific T cells (CD45+CD8+Spas-1), and effector T cells (CD45+CD8+CD44+CD62L-). Activated effector T cells and antigen specific T cells were more susceptible to IFN-γ induced active Caspase-3 expression compared to naïvee T cells (FIG. 5B; 2297.33±305.84 versus 2281.67±305.89 versus 723±17.54; P<0.001).
Splenocytes were harvested from TRAMP-C2 bearing C57BL/6j mice on day 50 and T cells were purified by magnetic beads according to the manufacturer's protocol (Miltenyi Biotec Cat 130-095-130). Cells were checked for over 90% purity. Purified T cells were suspend in DMEM (UCSF cell culture core) +10% fetal bovine serum (Lonza Cat 14-501F) +1% penicillin/streptomycin (UCSF cell culture core)+murine 20 IU IL-2 (Peprotech Cat 212-12), and seeded in 96 wells at 2×10^5 cells per well. Recombinant murine IFN-γ (Peprotech Cat 212-12) was added into the wells at indicated concentrations. Cells were cultured for 12-72 hours and analyzed by flow cytometry. For the patient sample, peripheral blood mononuclear cells (PBMCs) were isolated by Ficoll (Sigma Cat F4375) and PBMCs were seeded in 96 wells at 2×10^5 cells per well supplemented with 20 IU human IL-2 (Peprotech Cat 200-02). Recombinant human IFN-γ (Peprotech Cat 212-12) was added to the wells. Cells were harvested and analyzed by flow cytometry 72 hours after incubation.
The flow cytometry protocols were previously described (Sckisel et al., 2015). […] Flow cytometry was performed on Fortessa X20 Dual, and data analyzed by FlowJo software (TreeStar). […]

IFN-γ: Recombinant human IFN-γ (Peprotech) added to patient PBMCs
apoptosis (Annexin V) in CD8+ T cells [1]: gradual increase in apoptosis

B1: recombinant IFN-γ: Recombinant murine IFN-γ (Peprotech) (protein, UniProt P01580 23-155, looked up)
Interferon gamma: HGTVIESLESLNNYFNSSGIDVEEKSLFLDIWRNWQKDGDMKILQSQIISFYLRLFEVLKDNQAISNNISVIESHLITTFFSNSKAKKDAFMSIAKFEVNNPQVQRQAFNELIRVVHQLLPESSLRKRKRSRC
active Caspase-3 expression, antigen specific T cells (CD45+CD8+Spas-1) [2]: 2281.67±305.89 | active Caspase-3 expression, effector T cells (CD45+CD8+CD44+CD62L-) [2]: 2297.33±305.84 | active Caspase-3 expression, naïve T cells (CD45+CD8+CD44-CD62L+) [2]: 723±17.54
